What was measured:
[1] = target: T1, GroEL^SR (GroEL R452A/E461A/S463A/V464A) (E. coli, UniProt P0A6F5 1-548, R452A | E461A | S463A | V464A); assay: MST; cochaperonin labelled with DyLight 650, unlabelled GroEL or GroEL^SR titrated (serial dilution of 15 samples), 30 min incubation; 50 mM TrisCl pH 7.5, 100 mM KCl, 10 mM MgCl2, 1 mM EDTA, 2 mM ADP, 0.5 mg/mL BSA; Monolith NT115, 80% LED, 40% IR-laser; settings: both partners purified
T1 construct: GroEL, E. coli, single-ring variant; groEL^SR in the pTrc vector; also called single-ring GroEL; source: dialysis against 30% methanol, FastQ column

GroEL = target: T2, GroEL (E. coli, UniProt P0A6F5 1-548); assay: MST; cochaperonin labelled with DyLight 650; unlabelled GroEL or GroEL^SR in a serial dilution of 15 samples; 50 mM TrisCl pH 7.5, 100 mM KCl, 10 mM MgCl2, 1 mM EDTA, 2 mM ADP, 0.5 mg/mL BSA; 30 min incubation; settings: both partners purified
T2 construct: GroEL, E. coli, expressed from pTrc; two heptameric rings (tetradecamer); also called chaperonin; double-ring GroEL; source: E. coli BL21(DE3), purified (methanol dialysis, FastQ column); copies: 14

Binder	Kd [1] [nM]	Kd (GroEL) [nM]
GroES (natural protein, E. coli, UniProt P0A6F9 1-97, looked up, DyLight 650 NHS Ester amine reactive dye (labelled), GroES, E. coli; one heptameric ring; groES in pET3b; also called cochaperonin) MNIRPLHDRVIVKRKEVETKSAGGIVLTGSAAAKSTRGEVLAVGNGRILENGEVKPLDVKVGDIVIFNDGYGVKSEKIDNEEVLIMSESDILAIVEA	3.67	
GroES (natural protein, E. coli, UniProt P0A6F9 1-97, looked up, DyLight 650 NHS ester on amines (for MST), GroES, E. coli, expressed from pET3b; heptamer; also called cochaperonin; wild type GroES) MNIRPLHDRVIVKRKEVETKSAGGIVLTGSAAAKSTRGEVLAVGNGRILENGEVKPLDVKVGDIVIFNDGYGVKSEKIDNEEVLIMSESDILAIVEA		3.83 ± 0.93

Reference: article PMC5575113, “Creating the Functional Single-Ring GroEL-GroES Chaperonin Systems via Modulating GroEL-GroES Interaction” (Scientific Reports, 2017)
